The RNAGym collection of RNA variant scans (doi:10.1093/nar/gkz1192)

B1: CPEB3 Ribozyme (parent)
chain: UAACAGGGGGCCACAGCAGAAGCGUUCACGUCGCAGCCCCUGUCAGAUUCUGGUGAAUCUGCGAAUUCUGCUGUAUAUCUC

Variants of: B1
Assay: self-cleavage, relative activity (ratio to wild type); higher = more cleavage; in vitro, sequencing
In short: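 After error-prone PCR and barcoding, CPEB3 ribozyme mutant libraries were transcribed with T7 RNA polymerase at 37°C for 5 hours, then given 15 min with DNase I before an EDTA stop, and they cleaved during both steps. Reverse transcription with template switching preceded Illumina sequencing. Relative activity divides a variant's cleaved/total read fraction by the unmutated ribozyme's. At least 5 reads were required per variant, and three batches were averaged.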

Variant	self-cleavage
G10C G16A	0.12
G9U G55A	0.41
G10C U72A	0.14
C11A C17U	0.09
G9U U74C	0.32
G9U A64G	0.15
G9U A64U	0.06
G10A A56G	0.15
G10A A56U	0.12
G10A C32U	0.19
G10A C32A	0.06
G10C G53A	0.26
G10A C11U	0.5
G9U U66C	0.15
G9U U66G	0.11
G10A A18C	0.35
G10A A18U	0.15
G10A A18G	0.23
G10C A18U	0.12
G10C A18G	0.13
G10U U48A	0.35

Variant	self-cleavage
G10A U69G	0.36
G10A U69A	0.11
G10A U69C	0.2
G10A U60C	0.2
G10A U60A	0.14
G10A U60G	0.06
G10U U54C	0.34
G10A C81G	0.3
G9U U76C	0.13
G9U U76A	0.39
G10A C38U	0.08
C11A A35G	0.46
C11A A35U	0.1
G10A U80C	0.25
G10A U80A	0.06
G10A U80G	0.25
G10A C40A	0.19
G10A C40U	0.15
G10A C59A	0.06
G9U C62U	0.13
G10A G30U	0.17

Variant	self-cleavage
G9U U41C	0.32
G9U U41A	0.15
C11A A28U	0.67
C11A A28G	0.1
C11A A20G	0.21
G10A C34U	0.05
G10A A75G	0.19
C11A A56G	0.34
C11A A56U	0.12
G9U G53U	0.36
G10C U74G	0.26
G10C U74A	0.26
G9U G70A	0.1
G10A G53A	0.29
G10A G53C	0.33
G10A U51A	0.33
G10A U51C	0.24
G10C A20U	0.42
G10C A20G	0.19
G10A U72A	0.22
G10A U72C	0.39

Variant	self-cleavage
G10A U72G	0.24
G10C C11A	0.33
G9U A21G	0.22
G10C C12U	0.1
G10C C12A	0.44
G9U C38A	1.09
G9U U69C	0.11
G9U U69G	0.18
G9U U69A	0.11
G9U U80A	0.26
G9U U80C	0.24
G10A A35G	0.55
G10A A35U	0.11
G10A U25C	0.23
G10A U25A	0.26
G10A U25G	0.14
C11A A64G	0.21
C11A A64U	0.06
C11A A45G	0.41
G10U A35G	0.32
G10U A35U	0.05
